Results on ten molecules are retold here after US20220340642A1 (Kyowa Kirin, published 2022).

As a reminder, the Kd is the constant that tells how readily two partners part at equilibrium.

Changes are numbered by the printed parent chain. Names may count otherwise.

The labels stand for the following.
B1: chimera A-E57K_R58D-Fc (Eg1S LALAGANA) (Fc fusion)
chain: ETFPPKYLHYDEETSHQLLCDKCPPGTYLKQHCTAKWKTVCAPCPPRHYTQFWNYLKDCRYCNVLCGEREEEARACHATHNRACRCRTGFFAHAGFCLEHASCPPGAGVIAPGTPSQNTQCQPCPDGFFSNETSSKAPCRKHTNCSVFGLLLTQKGNATHDNICSGNSESTQKEPKSSDKTHTCPPCPAPEAAGAPSVFLFPPKPKDTLMISRTPEVTCVVVDVSHEDPEVKFNWYVDGVEVHNAKTKPREEQYNSTYRVVSVLTVLHQDWLNGKEYKCKVSNKALPAPIEKTISKAKGQPREPQVYTLPPSRDELTKNQVSLTCLVKGFYPSDIAVEWESNGQPENNYKTTPPVLDSDGSFFLYSKLTVDKSRWQQGNVFSCSVMHEALHAHYTQKSLSLSPGK
B2: chimera A-E57R-Fc (Eg1S YTE) (Fc fusion)
chain: B1 chain with K57R, D58R, A192L, A193L, A195G, M210Y, S212T, T214E, A392N
B3: chimera A-E57K_R58E-Fc (Eg1S LALAGANA) (Fc fusion)
chain: B1 chain with D58E
B4: chimera A-Fc (Eg1S LALAGANA) (Fc fusion)
chain: B1 chain with K57E, D58R
B5: chimera A-Fc (Eg1S YTE) (Fc fusion)
chain: B1 chain with K57E, D58R, A192L, A193L, A195G, M210Y, S212T, T214E, A392N
B6: chimera A-E57K-Fc (Eg1S LALAGANA) (Fc fusion)
chain: B1 chain with D58R
B7: chimera A-E57V-Fc (Eg1S YTE) (Fc fusion)
chain: B1 chain with K57V, D58R, A192L, A193L, A195G, M210Y, S212T, T214E, A392N
B8: chimera A-E57V-Fc (Eg1S LALAGANA) (Fc fusion)
chain: B1 chain with K57V, D58R
B9: chimera A-E57K_R58D-Fc (Eg1S YTE) (Fc fusion)
chain: B1 chain with A192L, A193L, A195G, M210Y, S212T, T214E, A392N
notes: also called 45-10-Fc (Eg1S YTE)
B10: chimera A-E57K_R58E-Fc (Eg1S YTE) (Fc fusion)
chain: B1 chain with D58E, A192L, A193L, A195G, M210Y, S212T, T214E, A392N
notes: also called 45-18-Fc (Eg1S YTE)

One experiment has as its target T1, soluble recombinant of cynomolgus monkey TL1A (His6, GS linker, Leu72-Leu251).
T1 chain: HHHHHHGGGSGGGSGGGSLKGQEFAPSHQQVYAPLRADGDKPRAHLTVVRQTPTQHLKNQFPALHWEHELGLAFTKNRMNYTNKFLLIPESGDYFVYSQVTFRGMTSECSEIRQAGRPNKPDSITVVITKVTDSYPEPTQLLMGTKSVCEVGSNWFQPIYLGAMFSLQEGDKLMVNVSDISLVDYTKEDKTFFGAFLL
The experiment is described as follows: BIAcore SPR. An outline of the steps: (§1)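 The dissociation constant (Kd, nM) reflects binding of each test molecule to soluble recombinant His-tagged human or cynomolgus monkey LIGHT, TL1A or FasL. It was derived from surface plasmon resonance measurements in HBS-EP+ Buffer using a BIAcore T-100 or T-200 instrument (GE Healthcare).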
For orientation: SPR reads the build-up and loss of mass on a sensor chip optically.
Take B1: the Kd amounted to 0.19 nM.

With B2, the Kd stood at 0.36 nM.

Consider B3, for which the Kd was found to be 0.17 nM.

In the case of B4, the Kd is 0.11 nM.

In the case of B5, the Kd is 0.17 nM.

Regarding B6, the Kd was 0.27 nM.

Consider B7, for which the Kd is 0.22 nM.

Turning to B8, the Kd was determined as 0.21 nM.

B9: the Kd was 0.25 nM.

With B10, the Kd was determined as 0.21 nM.

The next experiment concerns the target T2, soluble recombinant of cynomolgus monkey LIGHT (His10, GS linker, Asp74-Val240).
T2 chain: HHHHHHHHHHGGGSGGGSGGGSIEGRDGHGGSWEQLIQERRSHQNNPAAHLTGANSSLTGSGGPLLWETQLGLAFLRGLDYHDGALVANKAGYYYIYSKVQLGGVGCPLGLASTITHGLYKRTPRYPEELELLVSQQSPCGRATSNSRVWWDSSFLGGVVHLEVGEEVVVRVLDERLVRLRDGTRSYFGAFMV
The experiment can be described thus: BIAcore SPR. The gist of the method:
as §1
Regarding B1, the Kd was 0.3 nM.

B2: the Kd came to 0.3 nM.

In the case of B3, the Kd worked out at 0.28 nM.

In the case of B4, the Kd stood at 0.21 nM.

With B5, the Kd worked out at 0.28 nM.

As to B6, the Kd was determined as 0.28 nM.

Consider B7, for which the Kd stood at 0.34 nM.

Take B8: the Kd came to 0.35 nM.

For B9, the Kd is 0.31 nM.

Consider B10, for which the Kd worked out at 0.35 nM.

The target of the next experiment is T3, soluble recombinant of cynomolgus monkey FasL (His6, Pro133-Leu280) (UniProt P63308 133-280).
T3 chain: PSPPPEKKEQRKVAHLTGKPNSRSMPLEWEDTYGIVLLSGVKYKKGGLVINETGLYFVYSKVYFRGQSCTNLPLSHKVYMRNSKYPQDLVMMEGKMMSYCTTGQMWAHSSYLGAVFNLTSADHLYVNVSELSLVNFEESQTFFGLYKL
The experiment is described as follows: BIAcore SPR. An outline of the steps:
as §1
As to B1, the Kd came to 0.96 nM.

Consider B2, for which the dissociation constant (Kd) came to 1.2 nM.

As to B3, the Kd came to 0.99 nM.

As for B4, the Kd was determined as 0.22 nM.

Take B5: the Kd was determined as 0.27 nM.

In the case of B6, the Kd is 1.1 nM.

B7: the Kd was found to be 1.1 nM.

Regarding B8, the Kd came to 1.1 nM.

For the molecule B9, the Kd worked out at 1.2 nM.

With B10, the Kd came out at 1.2 nM.

The target in the next experiment is T4, FLAG-LIGHT (FLAG tag, human LIGHT Asp74-Val240) (human, UniProt O43557 74-240).
T4 construct: SEC trimer fraction; also called soluble recombinant FLAG-LIGHT trimer; soluble human LIGHT trimer
The experiment can be described thus: SPR, binder captured on Protein A chip. The procedure:
(§2) The binding activity to human and cynomolgus monkey DcR3 ligand trimers were analyzed by the SPR method. BIAcore T-100 (GE Healthcare) was used for measurement of the binding activities to human LIGHT, cynomolgus monkey LIGHT, human TL1A and cynomolgus monkey TL1A, and BIAcore T-200 (GE Healthcare) was used for measurement of the binding activities to human FasL and cynomolgus monkey FasL. As the buffer, HBS-EP+Buffer was used.
(§3) Various DcR3 variants were injected into Series S Sensor Chip Protein A (GE Healthcare) at 10 μL/min for 30 seconds and captured. Meanwhile, the buffer containing no protein was injected into a reference flow cell. Thereafter, as an analyte, each human DcR3 ligand trimer or each cynomolgus monkey DcR3 ligand trimer diluted to 0.08 to 20 nmol/L was injected. A human LIGHT trimer, a human TL1A trimer or each cynomolgus monkey DcR3 ligand trimer was injected at the flow rate of 30 μL/min for 2 minutes to monitor the binding, and subsequently the buffer was injected for 5 minutes to monitor dissociation. A human FasL trimer was injected at 30 μL/min for 1 minute to monitor the binding, and subsequently the buffer was injected for 3 minutes to monitor dissociation. Then, 3 mol/L magnesium chloride was injected at 30 μL/min for 1 minute to perform a regeneration reaction.
Consider B1, for which the binding result was “binds”.

As for B2, the binding result is “binds”.

For the molecule B3, the binding result was “binds”.

With B4, the binding result was “binds”.

Regarding B5, the binding result is “binds”.

B6: the binding result is listed as “binds”.

For the molecule B7, the binding result is reported as “binds”.

With B8, the binding result is given as “binds”.

Regarding B9, the binding result is on record as “binds”.

In the case of B10, the binding result is reported as “binds”.

The target of a further experiment is T5, FLAG-cynoLIGHT (FLAG tag, cynomolgus monkey LIGHT Asp74-Val240) (cynomolgus monkey).
T5 construct: SEC trimer fraction; also called soluble cynomolgus monkey LIGHT trimer
T5 chain: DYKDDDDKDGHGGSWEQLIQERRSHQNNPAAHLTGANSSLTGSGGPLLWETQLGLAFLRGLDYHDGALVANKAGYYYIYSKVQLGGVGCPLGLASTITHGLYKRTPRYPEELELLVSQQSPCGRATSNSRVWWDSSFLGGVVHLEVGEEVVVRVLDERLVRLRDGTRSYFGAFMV
The experiment can be described thus: SPR, binder captured on Protein A chip. The procedure:
as §2, §3
For the molecule B1, the binding result is “binds”.

As for B2, the binding result is listed as “binds”.

B3: the binding result is “binds”.

For B4, the binding result is “binds”.

With B5, the binding result is reported as “binds”.

Consider B6, for which the binding result is recorded as “binds”.

B7: the binding result is recorded as “binds”.

With B8, the binding result was “binds”.

Regarding B9, the binding result is reported as “binds”.

B10: the binding result was “binds”.

A further experiment addresses T6, Human His6 Fas Ligand/TNFSF6 (Cell Signaling Technology, Inc.) (human, UniProt P48023 133-281).
T6 construct: Bought; confirmed as a trimer by SEC-MALS; also called recombinant human His6 Fas Ligand; soluble human FasL trimer
T6 sequence: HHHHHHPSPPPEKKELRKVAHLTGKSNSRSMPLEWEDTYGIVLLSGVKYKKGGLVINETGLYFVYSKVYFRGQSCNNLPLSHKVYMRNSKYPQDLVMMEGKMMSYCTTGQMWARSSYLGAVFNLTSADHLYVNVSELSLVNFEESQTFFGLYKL
The experiment is described as follows: SPR, binder captured on Protein A chip. The method, then:
as §2, §3
Turning to B1, the binding result is recorded as “binds”.

In the case of B2, the binding result was “binds”.

As for B3, the binding result is reported as “binds”.

With B4, the binding result is given as “binds”.

In the case of B5, the binding result was “binds”.

Consider B6, for which the binding result is on record as “binds”.

As to B7, the binding result is listed as “binds”.

As for B8, the binding result is on record as “binds”.

Take B9: the binding result is listed as “binds”.

B10: the binding result is reported as “binds”.

The target of the next experiment is T7, soluble recombinant of human TL1A (His6, GS linker, Leu72-Leu251) (UniProt O95150 72-251).
T7 chain: T1 chain with L57F, V96I
The experiment is described as follows: BIAcore SPR. An outline of the steps: as §1
In the case of B1, the Kd worked out at 0.2 nM.

With B2, the Kd was determined as 0.33 nM.

Consider B3, for which the Kd is 0.16 nM.

Regarding B4, the Kd was 0.12 nM.

As for B5, the Kd came out at 0.16 nM.

For the molecule B6, the Kd was 0.24 nM.

As to B7, the Kd came to 0.24 nM.

Take B8: the Kd was 0.23 nM.

With B9, the Kd was 0.25 nM.

In the case of B10, the Kd turned out to be 0.2 nM.

For the next experiment, the target named is T8, soluble recombinant of human FasL (His6, Pro134-Leu281) (UniProt P48023 134-281).
T8 chain: T3 chain with Q10L, P20S, T70N, H108R
The experiment can be described thus: BIAcore SPR. An outline of the steps:
as §1
For the molecule B1, the Kd amounted to 4.6 nM.

For the molecule B2, the Kd turned out to be 5.1 nM.

As for B3, the Kd was 4.6 nM.

Consider B4, for which the Kd turned out to be 0.75 nM.

Regarding B5, the Kd turned out to be 1.2 nM.

Regarding B6, the Kd turned out to be 3.3 nM.

Take B7: the Kd is 5.3 nM.

As to B8, the Kd turned out to be 5.2 nM.

Turning to B9, the Kd worked out at 5.7 nM.

Consider B10, for which the Kd was determined as 5.6 nM.

The next experiment concerns the target T9, soluble recombinant of human LIGHT (His10, GS linker, Asp74-Val240).
T9 chain: T2 chain with H29P, G30A, Q44E, N45V, D80S, A88V, N89T, N146S, V164A, E167K
The experiment can be described thus: BIAcore SPR. The gist of the method: as §1
Turning to B1, the Kd was 0.3 nM.

On to B2, for which the Kd came to 0.39 nM.

Turning to B3, the Kd was 0.29 nM.

Regarding B4, the Kd amounted to 0.2 nM.

On to B5, for which the equilibrium dissociation constant (Kd) was 0.27 nM.

Turning to B6, the Kd was found to be 0.34 nM.

Turning to B7, the Kd was 0.35 nM.

With B8, the Kd came to 0.33 nM.

In the case of B9, the Kd stood at 0.4 nM.

Regarding B10, the Kd was found to be 0.33 nM.
